Measured values taken from publication doi:10.1101/2025.06.29.662139 (bioRxiv, 2025).
Changes are numbered by the printed parent chain. Names and notes keep the numbering of the source.

B1: anti-CD33 antibody variant S11 (antibody, V domains shown)
VH: QVQLVQSGAEVKKPGSSVKVSCKASGGIFSNHRISWVRQAPGQGLEWMGGIIPIFGTANYAQKFQGRVTITADESTSTAFMELSSLRSEDTAVYYCARAWADVFDIWGQGTMVTVSS
VL: EIVLTQSPLSLPVTPGEPASISCRSSQSLLHSNGYNYLDWYLQKPGQSPQLLIYLGVNSVSGVPDRFSGSGSGTDFTLKISRVEAEDVGVYYCMQALQTPWTFGQGTKVEIK
B2: anti-CD33 antibody W96F (antibody, V domains shown)
VH: B1 VH with R33A, A99E, W100F
VL: B1 VL

Biological target: human CD33 protein (R&D Systems) (Homo sapiens, UniProt P20138)
Sequence (P20138 18-259): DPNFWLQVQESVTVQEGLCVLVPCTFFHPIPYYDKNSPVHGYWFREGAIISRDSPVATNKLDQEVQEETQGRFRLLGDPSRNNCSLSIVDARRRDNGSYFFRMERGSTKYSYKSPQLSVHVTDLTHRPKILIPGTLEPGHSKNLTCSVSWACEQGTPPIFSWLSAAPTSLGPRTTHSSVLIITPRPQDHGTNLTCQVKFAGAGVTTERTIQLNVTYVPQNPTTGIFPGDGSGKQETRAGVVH
Experiment: SPR

| Binder | fold reduction in binding affinity (KD) against the lead candidate [fold] | binding result | fold loss of binding affinity against the parent antibody [fold] |
| --- | --- | --- | --- |
| B1 | 1.4 | – | – |
| B2 | – | no binding | > 1000 |
